Test results: article PMC10938568 (Science Advances, 2021)
Like-named read-outs stand apart in the source and are kept apart here.

B1: GST-PreScission-p62 FIR 4P (domain or fragment)
chain: MESDNCSGGDDDWTHLSSKEVDPETGELQSLQMPESEGPEELDPEQEGPTGLKEA
B2: His8-TEV-GABARAP (1 to 117) (natural protein)
chain: MKFVYKEEHPFEKRRSEGEKIRKKYPDRVPVIVEKAPKARIGDLDKKKYLVPSDLTVGQFYFLIRKRIHLRAEDALFFFVNNVIPPTSATMGQLYQEHHEEDFFLYIAYSDESVYGL

Tests used:
Assay in all cases: SPR
[1] = target: B2
His8-TEV-LC3B (1 to 125) = His8-TEV-LC3B (1 to 125) (human, UniProt Q9GZQ8 1-120)
[2] = target: T1, Biotinylated FLCN-8xGlycine-AviTag/FNIP2 (human, UniProt Q8NFG4;Q9P278, biotin on the AviTag)
[3] = target: T1, Biotinylated FLCN-8xGlycine-AviTag/FNIP2; remark: listed apart in the source

Row | Binder | Kd [1] [nM] | Kd (His8-TEV-LC3B (1 to 125)) [nM] | Kd [2] [nM] | Kd [3] [nM]
1 | B1 | 670 ± 80 | 820 ± 40 |  | 
2 | B2 |  |  | 0.3 ± 0.018 | 0.071 ± 0.01
